{"source": "paper doi:10.1101/808618v2", "experiment_in_all_cases": "purified protein", "key": {"purified protein [1]": {"substrate": "NC(=O)CC[C@H](N)C(=O)O", "conditions": "pH 8.5, 25 °C, 20 mM MgCl2, XMP […], ATP 2 mM fixed"}, "purified protein [2]": {"substrate": "O=c1[nH]c(=O)c2ncn([C@@H]3O[C@H](COP(=O)(O)O)[C@@H](O)[C@H]3O)c2[nH]1", "conditions": "pH 8.5, 25 °C, 20 mM MgCl2, ATP 2 mM, Gln 5 mM fixed"}, "purified protein [3]": {"substrate": "Nc1ncnc2c1ncn2[C@@H]1O[C@H](COP(=O)(O)OP(=O)(O)OP(=O)(O)O)[C@@H](O)[C@H]1O", "conditions": "pH 8.5, 25 °C, 20 mM MgCl2, XMP […], Gln 5 mM fixed"}}, "data": [{"protein": "PfGMPS (Plasmodium falciparum 3D7) (protein) MEGEEYDKILVLNFGSQYFHLIVKRLNNIKIFSETKDYGVELKDIKDMNIKGVILSGGPYSVTEAGSPHLKKEVFEYFLEKKIPIFGICYGMQEIAVQMNGEVKKSKTSEYGCTDVNILRNDNINNITYCRNFGDSSSAMDLYSNYKLMNETCCLFENIKSDITTVWMNHNDEVTKIPENFYLVSSSENCLICSIYNKEYNIYGVQYHPEVYESLDGELMFYNFAYNICKCKKQFDPIRYHELELKNIEKYKHDHYVIAAMSGGIDSTVAAAYTHKIFKERFFGIFIDNGLLRKNEAENVYTFLKSTFPDMNITKIDASENFLSNLQGVTDPEQKRKIIGKLFIEEFEKAVNNIDIDINKTFLLQGTLYPDIIESKCSKNLSDTIKTHHNVGGLPKNLKFKLFEPFKYLFKDDVKTLSRELNLPEEITNRHPFPGPGLAIRVIGEINKHKLNILREVDDIFINDLKQYGLYNQISQAFAVLLSSKSVGVRGDARSYDYVCVLRAVKTSSFMTANWYQIPYDILDKITTRILSEVKGVNRILYDVSSKPPATIEFE", "values": [{"measurement": "Km", "setting": "purified protein [1]", "result": "330 ± 20", "unit": "µM"}, {"measurement": "kcat", "setting": "purified protein [1]", "result": "0.766 ± 0.005", "unit": "s⁻¹"}, {"measurement": "Km", "setting": "purified protein [2]", "result": "7.1 ± 1", "unit": "µM"}, {"measurement": "kcat", "setting": "purified protein [2]", "result": "0.741 ± 0.058", "unit": "s⁻¹"}, {"measurement": "Km", "setting": "purified protein [3]", "result": "119 ± 2", "unit": "µM"}, {"measurement": "kcat", "setting": "purified protein [3]", "result": "0.893 ± 0.039", "unit": "s⁻¹"}]}]}
